Assay results reported in paper PMC4358365, “Conserved mechanisms of microtubule-stimulated ADP release, ATP binding, and force generation in transport kinesins” (eLife, 2014).

B1: human kinesin-3 (Kin3) motor domain construct (Kif1A, residues 1–361) (domain or fragment)
chain: MAGASVKVAVRVRPFNSREMSRDSKCIIQMSGSTTTIVNPKQPKETPKSFSFDYSYWSHTSPEDINYASQKQVYRDIGEEMLQHAFEGYNVCIFAYGQTGAGKSYTMMGKQEKDQQGIIPQLCEDLFSRINDTTNDNMSYSVEVSYMEIYCERVRDLLNPKNKGNLRVREHPLLGPYVEDLSKLAVTSYNDIQDLMDSGNKARTVAATNMNETSSRSHAVFNIIFTQKRHDAETNITTEKVSKISLVDLAGSERADSTGAKGTRLKEGANINKSLTTLGKVISALAEMDSGPNKNKKKKKTDFIPYRDSVLTWLLRENLGGNSRTAMVAALSPADINYDETLSTLRYADRAKQIRCNAVIN

Target: paclitaxel-stabilised microtubule polymerised from bovine αβ-tubulin (bovine) (UniProt Q6B856)
UniProt Q6B856, sequence (Q6B856 whole entry, looked up): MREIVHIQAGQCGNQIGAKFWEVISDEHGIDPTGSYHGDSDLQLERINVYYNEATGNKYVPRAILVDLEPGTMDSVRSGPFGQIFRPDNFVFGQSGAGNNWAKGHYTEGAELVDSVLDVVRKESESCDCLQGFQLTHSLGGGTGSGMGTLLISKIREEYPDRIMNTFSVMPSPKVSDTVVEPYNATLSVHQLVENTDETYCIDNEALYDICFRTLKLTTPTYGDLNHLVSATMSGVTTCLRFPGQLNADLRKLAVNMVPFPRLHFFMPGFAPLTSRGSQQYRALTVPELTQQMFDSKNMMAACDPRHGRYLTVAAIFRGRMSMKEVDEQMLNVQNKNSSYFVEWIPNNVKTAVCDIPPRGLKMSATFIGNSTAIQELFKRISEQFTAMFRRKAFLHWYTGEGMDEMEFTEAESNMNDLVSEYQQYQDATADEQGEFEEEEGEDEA

K (0.5 MT) of the steady-state MT-activated ATPase (10 nM motor domain, paclitaxel-stabilised MTs, 20°C) [µM]	Molecule
12.7	human kinesin-1 (Kin1) motor domain construct (Kif5A, residues 1–340) (from UniProt Q12840 1-340) (domain or fragment)
0.0537	B1
